# Data: KR20200110551A
# B1: 단클론항체 8B87 (antibody, V domains shown)
# VH: KKPGETVKISCKASGYTFTNYGVSWVKQVPGKGLKWMGWINTNTGKPAYADDFKGRFAFYLDTSASTAYLQISNLKNEDEATYFCVIYHDYLWFAYWGQGTLITVSA
# VL: NIVLTQSPASLAVSLGQRATISCRASNSVDTYGNSFMHWYQQRPGQPPKLLIFLASDLESGVPGRFRGSGSRTDFTLTIDPVEADDAATYYCQQNYADPWTFGGGTKLEIK
# Key:
# [1] = molecular target: FMDV 혈청형 O (진천주) (Foot and Mouth Disease Virus serotype O (Jincheon strain))
# [2] = molecular target: FMDV 혈청형 O (진천주) (Foot and Mouth Disease Virus serotype O (Jincheon strain)); test: cell-based or functional assay
binder,measurement,setting,value
B1,ELISA screening plate (O.D 450nm),[1],2.23 O.D 450nm
same,VNT titer,[2],64
